Source: the supplement of paper PMC7877785
± gives the uncertainty stated by the source.

Test: self-splicing fitness, log relative to wild type (ln ratio); higher = more splicing; Tetrahymena group I intron in knt gene, E. coli kanamycin selection, DiMSum; sequences stand for … in CUCUCU…GGAGGGAAAAGUUAUCAGGCAUGCACCUGGUAGCUAGUCUUUAAACCAAUAGAUUGCAUCGGUUUAAAAGGCAAGACCGUCAAAUUGCGGGAAAGGGGUCAACAGCCGUUCAGUACCAAGUCUCAGGGGAAACUUUGAGAUGGCCUUGCAAAGGGUAUGGUAAUAAGCUGACGGACAUGGUCCUAACCACGCAGCCAAGUCCUAAGUCAACAGAUCUUCUGUUGAUAUGGAUGCAGUUCACAGACUAAAUGUCGGUCGGGGAAGAUGUAUUCUUCUCAUAAGAUAUAGUCGGACCUCUCCUUAAUGGGAGCUAGCGGAUGAAGUGAUGCAACACUGGAGCCGCUGGGAACUAAUUUGUAUGCGAAAGUAUAUUGAUUAGUUUUGGAGUACUCGUGGUCG
Method in brief: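 DiMSum derived fitness as the error-weighted combination of fold changes across replicates, kanamycin versus no kanamycin, normalised to wild type. E. coli BL21(DE3) held the library, which randomised all eight P1ex-region intron nucleotides within the knt kanamycin-resistance gene on pET-22b(+). Six replicate transformations grew overnight at 37°C or 30°C on LB agar with or without 25 μg/mL kanamycin, also containing 100 μg/mL carbenicillin, 50 μM IPTG and 0.2% rhamnose, and pooled colonies were amplicon-sequenced on an Illumina HiSeq 2500.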

| Sequence | self-splicing fitness (ln) (37 °C) | self-splicing fitness (ln) (30 °C) |
| --- | --- | --- |
| GUGCAGCAAUAUUACGCAUU | -2.38 ± 0.2 | – |
| GUGCAGCAAUAUUACGCCUA | 0.608 ± 0.25 | -1.29 ± 0.24 |
| GUGCAGCAAUAUUACGGAUG | -1.74 ± 0.25 | -2.72 ± 0.29 |
| GUGCAGCAAUAUUACGGAUU | -0.37 ± 0.11 | -1.66 ± 0.12 |
| GUGCAGCAAUAUUACGGCAC | -1.46 ± 0.24 | -0.83 ± 0.2 |
| GUGCAGCAAUAUUACGGCAU | -1.64 ± 0.18 | -2.93 ± 0.2 |
| GUGCAGCAAUAUUACGGCCA | -0.818 ± 0.14 | -0.211 ± 0.11 |
| GUGCAGCAAUAUUACGGCGC | -2.41 ± 0.32 | -2.72 ± 0.17 |
| GUGCAGCAAUAUUACGGCUG | -2.36 ± 0.28 | -4.5 ± 0.34 |
| GUGCAGCAAUAUUACGGGAG | -1.44 ± 0.13 | -2.01 ± 0.12 |
| GUGCAGCAAUAUUACGGGGC | -2.63 ± 0.27 | -1.75 ± 0.15 |
| GUGCAGCAAUAUUACGGGUU | -0.752 ± 0.095 | -3.37 ± 0.13 |
| GUGCAGCAAUAUUACGGUCG | -0.792 ± 0.075 | -1.29 ± 0.053 |
| GUGCAGCAAUAUUACGUAUG | -1.1 ± 0.13 | -1.86 ± 0.13 |
| GUGCAGCAAUAUUACGUCAG | -1.83 ± 0.11 | -3.02 ± 0.13 |
| GUGCAGCAAUAUUACGUCCC | -0.124 ± 0.26 | -0.912 ± 0.35 |
| GUGCAGCAAUAUUACGUCGC | -0.148 ± 0.22 | -1.5 ± 0.28 |
| GUGCAGCAAUAUUACGUGAU | -0.862 ± 0.086 | -1.98 ± 0.078 |
| GUGCAGCAAUAUUACGUUUG | -2.63 ± 0.27 | -1.76 ± 0.17 |
| GUGGAGCAAUAUUACGAAAA | – | -2.27 ± 0.43 |
| GUGGAGCAAUAUUACGAUGA | -1.39 ± 0.37 | -1.37 ± 0.19 |

| Sequence | self-splicing fitness (ln) (37 °C) | self-splicing fitness (ln) (30 °C) |
| --- | --- | --- |
| GUGGAGCAAUAUUACGCCGG | – | -2.57 ± 0.46 |
| GUGGAGCAAUAUUACGCGAC | – | -2.22 ± 0.48 |
| GUGGAGCAAUAUUACGCGUG | -1.77 ± 0.3 | -2.88 ± 0.37 |
| GUGGAGCAAUAUUACGCUUA | -1.04 ± 0.22 | -1.86 ± 0.14 |
| GUGGAGCAAUAUUACGCUUC | -3.69 ± 0.42 | -3.26 ± 0.2 |
| GUGGAGCAAUAUUACGGGGG | – | -3.36 ± 0.44 |
| GUGGAGCAAUAUUACGGUAA | -2.95 ± 0.19 | -2.05 ± 0.11 |
| GUGGAGCAAUAUUACGGUAG | -1.41 ± 0.31 | -1.7 ± 0.16 |
| GUGGAGCAAUAUUACGUAUA | – | -2.7 ± 0.2 |
| GUGGAGCAAUAUUACGUCUA | – | -3.74 ± 0.47 |
| GUGGAGCAAUAUUACGUGCA | -1.17 ± 0.16 | -2.14 ± 0.17 |
| GUGGAGCAAUAUUACGUUAU | -0.612 ± 0.14 | -3.23 ± 0.26 |
| GUGGAGCAAUAUUACGUUGU | -2.53 ± 0.21 | -2.93 ± 0.12 |
| GUGUAGCAAUAUUACGAAAU | -1.1 ± 0.14 | -1.47 ± 0.1 |
| GUGUAGCAAUAUUACGACCA | -0.121 ± 0.43 | -1.47 ± 0.28 |
| GUGUAGCAAUAUUACGACGU | 0.9 ± 0.12 | 0.117 ± 0.095 |
| GUGUAGCAAUAUUACGAGAG | -1.52 ± 0.47 | – |
| GUGUAGCAAUAUUACGCACG | -2.25 ± 0.22 | -3.57 ± 0.27 |
| GUGUAGCAAUAUUACGCAUC | -0.977 ± 0.26 | – |
| GUGUAGCAAUAUUACGCGAG | -0.997 ± 0.17 | -3.67 ± 0.32 |
